In patent US20060270596A1 (CENTRE NATIONAL DE LA RECHERCHE SCIENTIFIQUE CNRS, published 2006):

Molecular target: T1, chemokine CXCL2 (UniProt P19875 1-107, limits assumed)
T1 construct: 35S-labelled in vitro translation product
T1 sequence (looked up): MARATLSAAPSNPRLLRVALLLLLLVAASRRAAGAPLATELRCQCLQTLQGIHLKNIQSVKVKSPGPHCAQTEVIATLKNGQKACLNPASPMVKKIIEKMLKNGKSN
Test: GST pull-down, 35S-labelled in vitro translated molecule

- binding result: no binding
B1: GST-THAP3 181-284 (chemokine-binding domain of THAP3) (other)
chain: LPPNAEGHVKQVSPRRPQATEAVGRPTGPAGLRRTPNKQPSDHSYALLDLDSLKKKLFLTLKENEKLRKRLQAQRLVMRRMSSRLRACKGHQGLQARLGPEQQS
notes: not shown: GST (glutathione S-transferase of pGEX2T) and its linker at the N end
